Publication PMC4995487, “Tyrosine phosphorylation and protein degradation control the transcriptional activity of WRKY involved in benzylisoquinoline alkaloid biosynthesis”

Biological target: GST-CjWRKY1 WT (Coptis japonica, UniProt A0ZT25 1-185)
Assay: EMSA; 0.05 ug/ul poly(dI-dC), 1 mM MgCl2; EMSA: 20 fmol biotin probe, 3 ug protein, 1x LightShift binding buffer, 1 mM MgCl2, 0.5 mM EDTA, 0.05 ug/ul poly(dI-dC), 20 min at 4 C, 5% polyacrylamide gel; pH and salt not given
Conditions: protein: recombinant; tags: N-terminal GST (pGEX-6P-1); label: biotin; blunt

GST-CjWRKY1 WT, sequence (A0ZT25 entry or part of it): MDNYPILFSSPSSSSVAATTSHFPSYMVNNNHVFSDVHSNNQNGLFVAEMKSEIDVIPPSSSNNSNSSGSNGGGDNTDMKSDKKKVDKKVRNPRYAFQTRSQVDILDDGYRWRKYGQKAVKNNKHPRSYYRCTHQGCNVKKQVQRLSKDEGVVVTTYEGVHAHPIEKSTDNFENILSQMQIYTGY

B1: 3x W-box probe (CYP80B2 promoter) (dsDNA)
DNA 1: CTGCTGACTAGCTGACTAGCTGACTAGATGG
DNA 2: CCATCTAGTCAGCTAGTCAGCTAGTCAGCAG
- binding result: binds
